Measurements published in US20140314784A1.

Columns and labels:
[1] = target: KO_1st loop; assay: flow cytometry, CHO cells transiently transfected with the construct, 6C7 at 0.1 µg/ml, dot plot SSC-A against PE-A
[2] = target: KO_3rd loop; assay: as above
[3] = target: KO_N-term; assay: as above
[4] = target: KO_1st loop; assay: flow cytometry, CHO cells transiently transfected with the construct, 6C7 at 0.05 µg/ml, dot plot SSC-A against PE-A
[5] = target: KO_3rd loop; assay: as above
[6] = target: KO_N-term; assay: as above

B1: 6C7 (antibody, V domains shown)
VH: QVQLVESGGGVVQPGRSLRLSCAASGFTFSNYVMHWVRQAPGKGLEWVAVIWYDGSNKYYADSVKGRFTISRDNSKNTLSLQMNSLRAEDTAVYYCERGEGYYGSGSRYRGYYYGMDVWGQGTTVTVSS
VL: DIQMTQSPSSLSASVGDRVTITCRASQGIRTDLGWYQQKPGKAPKRLIYAASSLQSGVPSRFSGSGSGTEFTLTISSLQPEDFATYYCLQHNSYPRTFGQGTKVEIK
[1]
  number in the positive gate (percent of cells): 50.1
[2]
  number in the positive gate (percent of cells): 52.8
[3]
  number in the positive gate (percent of cells): 52.8
[4]
  number in the positive gate (percent of cells): 45.2
[5]
  number in the positive gate (percent of cells): 47
[6]
  number in the positive gate (percent of cells): 49.2
